B1: PmirLAAD^S98A (protein)
chain: MNISRRKLLLGVGAAGVLAGGAALVPMVRRDGKFVEAKSRASFVEGTQGALPKEADVVIIGAGIQGIMTAINLAERGMSVTILEKGQIAGEQSGRAYAQIISYQTSPEIFPLHHYGKILWRGMNEKIGADTSYRTQGRVEALADEKALDKAQAWIKTAKEAAGFDTPLNTRIIKGEELSNRLVGAQTPWTVAAFEEDSGSVDPETGTPALARYAKQIGVKIYTNCAVRGIETAGGKISDVVSEKGAIKTSQVVLAGGIWSRLFMGNMGIDIPTLNVYLSQQRVSGVPGAPRGNVHLPNGIHFREQADGTYAVAPRIFTSSIVKDSFLLGPKFMHLLGGGELPLEFSIGEDLFNSFKMPTSWNLDEKTPFEQFRVATATQNTQHLDAVFQRMKTEFPVFEKSEVVERWGAVVSPTFDELPIISEVKEYPGLVINTATVWGMTEGPAAGEVTADIVMGKKPVIDPTPFSLDRFKK
B2: PmirLAAD^S106A (protein)
chain: MNISRRKLLLGVGAAGVLAGGAALVPMVRRDGKFVEAKSRASFVEGTQGALPKEADVVIIGAGIQGIMTAINLAERGMSVTILEKGQIAGEQSGRAYSQIISYQTAPEIFPLHHYGKILWRGMNEKIGADTSYRTQGRVEALADEKALDKAQAWIKTAKEAAGFDTPLNTRIIKGEELSNRLVGAQTPWTVAAFEEDSGSVDPETGTPALARYAKQIGVKIYTNCAVRGIETAGGKISDVVSEKGAIKTSQVVLAGGIWSRLFMGNMGIDIPTLNVYLSQQRVSGVPGAPRGNVHLPNGIHFREQADGTYAVAPRIFTSSIVKDSFLLGPKFMHLLGGGELPLEFSIGEDLFNSFKMPTSWNLDEKTPFEQFRVATATQNTQHLDAVFQRMKTEFPVFEKSEVVERWGAVVSPTFDELPIISEVKEYPGLVINTATVWGMTEGPAAGEVTADIVMGKKPVIDPTPFSLDRFKK
B3: PmirLAAD^S106A/L341A (protein)
chain: MNISRRKLLLGVGAAGVLAGGAALVPMVRRDGKFVEAKSRASFVEGTQGALPKEADVVIIGAGIQGIMTAINLAERGMSVTILEKGQIAGEQSGRAYSQIISYQTAPEIFPLHHYGKILWRGMNEKIGADTSYRTQGRVEALADEKALDKAQAWIKTAKEAAGFDTPLNTRIIKGEELSNRLVGAQTPWTVAAFEEDSGSVDPETGTPALARYAKQIGVKIYTNCAVRGIETAGGKISDVVSEKGAIKTSQVVLAGGIWSRLFMGNMGIDIPTLNVYLSQQRVSGVPGAPRGNVHLPNGIHFREQADGTYAVAPRIFTSSIVKDSFLLGPKFMHLLGGGEAPLEFSIGEDLFNSFKMPTSWNLDEKTPFEQFRVATATQNTQHLDAVFQRMKTEFPVFEKSEVVERWGAVVSPTFDELPIISEVKEYPGLVINTATVWGMTEGPAAGEVTADIVMGKKPVIDPTPFSLDRFKK
B4: PmirLAAD^T105A/S106A (protein)
chain: MNISRRKLLLGVGAAGVLAGGAALVPMVRRDGKFVEAKSRASFVEGTQGALPKEADVVIIGAGIQGIMTAINLAERGMSVTILEKGQIAGEQSGRAYSQIISYQAAPEIFPLHHYGKILWRGMNEKIGADTSYRTQGRVEALADEKALDKAQAWIKTAKEAAGFDTPLNTRIIKGEELSNRLVGAQTPWTVAAFEEDSGSVDPETGTPALARYAKQIGVKIYTNCAVRGIETAGGKISDVVSEKGAIKTSQVVLAGGIWSRLFMGNMGIDIPTLNVYLSQQRVSGVPGAPRGNVHLPNGIHFREQADGTYAVAPRIFTSSIVKDSFLLGPKFMHLLGGGELPLEFSIGEDLFNSFKMPTSWNLDEKTPFEQFRVATATQNTQHLDAVFQRMKTEFPVFEKSEVVERWGAVVSPTFDELPIISEVKEYPGLVINTATVWGMTEGPAAGEVTADIVMGKKPVIDPTPFSLDRFKK
B5: PmirLAAD^L341A (protein)
chain: MNISRRKLLLGVGAAGVLAGGAALVPMVRRDGKFVEAKSRASFVEGTQGALPKEADVVIIGAGIQGIMTAINLAERGMSVTILEKGQIAGEQSGRAYSQIISYQTSPEIFPLHHYGKILWRGMNEKIGADTSYRTQGRVEALADEKALDKAQAWIKTAKEAAGFDTPLNTRIIKGEELSNRLVGAQTPWTVAAFEEDSGSVDPETGTPALARYAKQIGVKIYTNCAVRGIETAGGKISDVVSEKGAIKTSQVVLAGGIWSRLFMGNMGIDIPTLNVYLSQQRVSGVPGAPRGNVHLPNGIHFREQADGTYAVAPRIFTSSIVKDSFLLGPKFMHLLGGGEAPLEFSIGEDLFNSFKMPTSWNLDEKTPFEQFRVATATQNTQHLDAVFQRMKTEFPVFEKSEVVERWGAVVSPTFDELPIISEVKEYPGLVINTATVWGMTEGPAAGEVTADIVMGKKPVIDPTPFSLDRFKK
B6: PmirLAAD^S98A/L341A (protein)
chain: MNISRRKLLLGVGAAGVLAGGAALVPMVRRDGKFVEAKSRASFVEGTQGALPKEADVVIIGAGIQGIMTAINLAERGMSVTILEKGQIAGEQSGRAYAQIISYQTSPEIFPLHHYGKILWRGMNEKIGADTSYRTQGRVEALADEKALDKAQAWIKTAKEAAGFDTPLNTRIIKGEELSNRLVGAQTPWTVAAFEEDSGSVDPETGTPALARYAKQIGVKIYTNCAVRGIETAGGKISDVVSEKGAIKTSQVVLAGGIWSRLFMGNMGIDIPTLNVYLSQQRVSGVPGAPRGNVHLPNGIHFREQADGTYAVAPRIFTSSIVKDSFLLGPKFMHLLGGGEAPLEFSIGEDLFNSFKMPTSWNLDEKTPFEQFRVATATQNTQHLDAVFQRMKTEFPVFEKSEVVERWGAVVSPTFDELPIISEVKEYPGLVINTATVWGMTEGPAAGEVTADIVMGKKPVIDPTPFSLDRFKK
B7: PmirLAAD^S98A/S106A (protein)
chain: MNISRRKLLLGVGAAGVLAGGAALVPMVRRDGKFVEAKSRASFVEGTQGALPKEADVVIIGAGIQGIMTAINLAERGMSVTILEKGQIAGEQSGRAYAQIISYQTAPEIFPLHHYGKILWRGMNEKIGADTSYRTQGRVEALADEKALDKAQAWIKTAKEAAGFDTPLNTRIIKGEELSNRLVGAQTPWTVAAFEEDSGSVDPETGTPALARYAKQIGVKIYTNCAVRGIETAGGKISDVVSEKGAIKTSQVVLAGGIWSRLFMGNMGIDIPTLNVYLSQQRVSGVPGAPRGNVHLPNGIHFREQADGTYAVAPRIFTSSIVKDSFLLGPKFMHLLGGGELPLEFSIGEDLFNSFKMPTSWNLDEKTPFEQFRVATATQNTQHLDAVFQRMKTEFPVFEKSEVVERWGAVVSPTFDELPIISEVKEYPGLVINTATVWGMTEGPAAGEVTADIVMGKKPVIDPTPFSLDRFKK
B8: PmirLAAD^S98A/T105A (protein)
chain: MNISRRKLLLGVGAAGVLAGGAALVPMVRRDGKFVEAKSRASFVEGTQGALPKEADVVIIGAGIQGIMTAINLAERGMSVTILEKGQIAGEQSGRAYAQIISYQASPEIFPLHHYGKILWRGMNEKIGADTSYRTQGRVEALADEKALDKAQAWIKTAKEAAGFDTPLNTRIIKGEELSNRLVGAQTPWTVAAFEEDSGSVDPETGTPALARYAKQIGVKIYTNCAVRGIETAGGKISDVVSEKGAIKTSQVVLAGGIWSRLFMGNMGIDIPTLNVYLSQQRVSGVPGAPRGNVHLPNGIHFREQADGTYAVAPRIFTSSIVKDSFLLGPKFMHLLGGGELPLEFSIGEDLFNSFKMPTSWNLDEKTPFEQFRVATATQNTQHLDAVFQRMKTEFPVFEKSEVVERWGAVVSPTFDELPIISEVKEYPGLVINTATVWGMTEGPAAGEVTADIVMGKKPVIDPTPFSLDRFKK
B9: PmirLAAD^T105A/L341A (protein)
chain: MNISRRKLLLGVGAAGVLAGGAALVPMVRRDGKFVEAKSRASFVEGTQGALPKEADVVIIGAGIQGIMTAINLAERGMSVTILEKGQIAGEQSGRAYSQIISYQASPEIFPLHHYGKILWRGMNEKIGADTSYRTQGRVEALADEKALDKAQAWIKTAKEAAGFDTPLNTRIIKGEELSNRLVGAQTPWTVAAFEEDSGSVDPETGTPALARYAKQIGVKIYTNCAVRGIETAGGKISDVVSEKGAIKTSQVVLAGGIWSRLFMGNMGIDIPTLNVYLSQQRVSGVPGAPRGNVHLPNGIHFREQADGTYAVAPRIFTSSIVKDSFLLGPKFMHLLGGGEAPLEFSIGEDLFNSFKMPTSWNLDEKTPFEQFRVATATQNTQHLDAVFQRMKTEFPVFEKSEVVERWGAVVSPTFDELPIISEVKEYPGLVINTATVWGMTEGPAAGEVTADIVMGKKPVIDPTPFSLDRFKK
B10: PmirLAAD^T105A (protein)
chain: MNISRRKLLLGVGAAGVLAGGAALVPMVRRDGKFVEAKSRASFVEGTQGALPKEADVVIIGAGIQGIMTAINLAERGMSVTILEKGQIAGEQSGRAYSQIISYQASPEIFPLHHYGKILWRGMNEKIGADTSYRTQGRVEALADEKALDKAQAWIKTAKEAAGFDTPLNTRIIKGEELSNRLVGAQTPWTVAAFEEDSGSVDPETGTPALARYAKQIGVKIYTNCAVRGIETAGGKISDVVSEKGAIKTSQVVLAGGIWSRLFMGNMGIDIPTLNVYLSQQRVSGVPGAPRGNVHLPNGIHFREQADGTYAVAPRIFTSSIVKDSFLLGPKFMHLLGGGELPLEFSIGEDLFNSFKMPTSWNLDEKTPFEQFRVATATQNTQHLDAVFQRMKTEFPVFEKSEVVERWGAVVSPTFDELPIISEVKEYPGLVINTATVWGMTEGPAAGEVTADIVMGKKPVIDPTPFSLDRFKK

This assay is described as follows: Shake flask screening of mutants: whole-cell transformation of L-valine, α-ketoisovaleric acid determined by HPLC. Format: cell-based, E. coli BL21. The settings on record: transformation temperature 25° C., pH 8.0, 24 h. The protocol:
Preparation of sample for determining α-ketoisovaleric acid content by HPLC: 1 mL of a transformed transformation solution is centrifuged at 12000 rpm for 5 min, the supernatant is diluted and filtered through a 0.45 μm filtration membrane, and the filtrate is for liquid chromatography.
Determination of α-ketoisovaleric acid content by HPLC: a waters high performance liquid chromatograph (equipped with a UV-visible detector) and a Bio-Rad Aminex HPX-87H (300×7.8 mm, 9 μm) chromatographic column are used, and the mobile phase is dilute sulfuric acid with the concentration of 2.5 mmol/L. The mobile phase is filtered through a 0.22 μm filtration membrane; the filtrate is subjected to ultrasonic degassing; and detection is performed at the flow rate of 0.6 mL/min, the column temperature of 35° C. and the ultraviolet detection wavelength of 210 nm.
(2) Shake flask screening of single mutants: The obtained 4 mutant strains and a strain containing wild-type L-amino acid deaminase were respectively inoculated into an LB seed medium, and cultured at 200 rpm at 37° C. for about 10 h. The products were respectively inoculated into a shake flask fermentation medium with the inoculum size of 5% of the medium by volume, and cultured at 200 rpm at 37° C. until OD600 was about 0.8. IPTG with the final concentration of 0.04 mmol/L was added for induction, and the induction was performed at 200 rpm at 25° C. for 14 h. The product was centrifuged at 6000 rpm for 8 min to collect bacterial cells. The bacterial cells collected by centrifugation were used for later transformation experiments.
Transformation conditions: transformation temperature 25° C., reaction pH 8.0, and transformation time 24 h.
The yield of α-ketoisovaleric acid of the transformation solution after the completion of the transformation was determined by HPLC. Finally, S98A produced α-ketoisovaleric acid at the highest yield.
Turning to B1, the α-ketoisovaleric acid is 46.9 g/L. With B2 the figure was 44.9 g/L.

The molecule B3 registered a α-ketoisovaleric acid of 46.5 g/L. As for B4, the α-ketoisovaleric acid is given as 49.4 g/L.

B5 registered a α-ketoisovaleric acid of 43.6 g/L. With B6 the figure was 51.5 g/L; with B7, 50.9 g/L. With B8 the figure was 52.6 g/L; with B9, 47.1 g/L; with B10, 44.6 g/L.
